Source: IntAct's records for PubMed 19556541

B1: Polycystin-2 (Homo sapiens), Q13563-1 (parent)
chain: MVNSSRVQPQQPGDAKRPPAPRAPDPGRLMAGCAAVGASLAAPGGLCEQRGLEIEMQRIRQAAARDPPAGAAASPSPPLSSCSRQAWSRDNPGFEAEEEEEEVEGEEGGMVVEMDVEWRPGSRRSAASSAVSSVGARSRGLGGYHGAGHPSGRRRRREDQGPPCPSPVGGGDPLHRHLPLEGQPPRVAWAERLVRGLRGLWGTRLMEESSTNREKYLKSVLRELVTYLLFLIVLCILTYGMMSSNVYYYTRMMSQLFLDTPVSKTEKTNFKTLSSMEDFWKFTEGSLLDGLYWKMQPSNQTEADNRSFIFYENLLLGVPRIRQLRVRNGSCSIPQDLRDEIKECYDVYSVSSEDRAPFGPRNGTAWIYTSEKDLNGSSHWGIIATYSGAGYYLDLSRTREETAAQVASLKKNVWLDRGTRATFIDFSVYNANINLFCVVRLLVEFPATGGVIPSWQFQPLKLIRYVTTFDFFLAACEIIFCFFIFYYVVEEILEIRIHKLHYFRSFWNCLDVVIVVLSVVAIGINIYRTSNVEVLLQFLEDQNTFPNFEHLAYWQIQFNNIAAVTVFFVWIKLFKFINFNRTMSQLSTTMSRCAKDLFGFAIMFFIIFLAYAQLAYLVFGTQVDDFSTFQECIFTQFRIILGDINFAEIEEANRVLGPIYFTTFVFFMFFILLNMFLAIINDTYSEVKSDLAQQKAEMELSDLIRKGYHKALVKLKLKKNTVDDISESLRQGGGKLNFDELRQDLKGKGHTDAEIEAIFTKYDQDGDQELTEHEHQQMRDDLEKEREDLDLDHSSLPRPMSSRSFPRSLDDSEEDDDEDSGHSSRRRGSISSGVSYEEFQVLVRRVDRMEHSIGSIVSKIDAVIVKLEIMERAKLKRREVLGRLLDGVAEDERLGRDSEIHREQMERLVREELERWESDDAASQISHGLGTPVGLNGQPRPRSSRPSSSQSTEGMEGAGGNGSSNVHV

Variants of: B1
Details: with pkd1_human PKD1, P98161
Sequence of pkd1_human PKD1, P98161 (P98161 whole entry, looked up): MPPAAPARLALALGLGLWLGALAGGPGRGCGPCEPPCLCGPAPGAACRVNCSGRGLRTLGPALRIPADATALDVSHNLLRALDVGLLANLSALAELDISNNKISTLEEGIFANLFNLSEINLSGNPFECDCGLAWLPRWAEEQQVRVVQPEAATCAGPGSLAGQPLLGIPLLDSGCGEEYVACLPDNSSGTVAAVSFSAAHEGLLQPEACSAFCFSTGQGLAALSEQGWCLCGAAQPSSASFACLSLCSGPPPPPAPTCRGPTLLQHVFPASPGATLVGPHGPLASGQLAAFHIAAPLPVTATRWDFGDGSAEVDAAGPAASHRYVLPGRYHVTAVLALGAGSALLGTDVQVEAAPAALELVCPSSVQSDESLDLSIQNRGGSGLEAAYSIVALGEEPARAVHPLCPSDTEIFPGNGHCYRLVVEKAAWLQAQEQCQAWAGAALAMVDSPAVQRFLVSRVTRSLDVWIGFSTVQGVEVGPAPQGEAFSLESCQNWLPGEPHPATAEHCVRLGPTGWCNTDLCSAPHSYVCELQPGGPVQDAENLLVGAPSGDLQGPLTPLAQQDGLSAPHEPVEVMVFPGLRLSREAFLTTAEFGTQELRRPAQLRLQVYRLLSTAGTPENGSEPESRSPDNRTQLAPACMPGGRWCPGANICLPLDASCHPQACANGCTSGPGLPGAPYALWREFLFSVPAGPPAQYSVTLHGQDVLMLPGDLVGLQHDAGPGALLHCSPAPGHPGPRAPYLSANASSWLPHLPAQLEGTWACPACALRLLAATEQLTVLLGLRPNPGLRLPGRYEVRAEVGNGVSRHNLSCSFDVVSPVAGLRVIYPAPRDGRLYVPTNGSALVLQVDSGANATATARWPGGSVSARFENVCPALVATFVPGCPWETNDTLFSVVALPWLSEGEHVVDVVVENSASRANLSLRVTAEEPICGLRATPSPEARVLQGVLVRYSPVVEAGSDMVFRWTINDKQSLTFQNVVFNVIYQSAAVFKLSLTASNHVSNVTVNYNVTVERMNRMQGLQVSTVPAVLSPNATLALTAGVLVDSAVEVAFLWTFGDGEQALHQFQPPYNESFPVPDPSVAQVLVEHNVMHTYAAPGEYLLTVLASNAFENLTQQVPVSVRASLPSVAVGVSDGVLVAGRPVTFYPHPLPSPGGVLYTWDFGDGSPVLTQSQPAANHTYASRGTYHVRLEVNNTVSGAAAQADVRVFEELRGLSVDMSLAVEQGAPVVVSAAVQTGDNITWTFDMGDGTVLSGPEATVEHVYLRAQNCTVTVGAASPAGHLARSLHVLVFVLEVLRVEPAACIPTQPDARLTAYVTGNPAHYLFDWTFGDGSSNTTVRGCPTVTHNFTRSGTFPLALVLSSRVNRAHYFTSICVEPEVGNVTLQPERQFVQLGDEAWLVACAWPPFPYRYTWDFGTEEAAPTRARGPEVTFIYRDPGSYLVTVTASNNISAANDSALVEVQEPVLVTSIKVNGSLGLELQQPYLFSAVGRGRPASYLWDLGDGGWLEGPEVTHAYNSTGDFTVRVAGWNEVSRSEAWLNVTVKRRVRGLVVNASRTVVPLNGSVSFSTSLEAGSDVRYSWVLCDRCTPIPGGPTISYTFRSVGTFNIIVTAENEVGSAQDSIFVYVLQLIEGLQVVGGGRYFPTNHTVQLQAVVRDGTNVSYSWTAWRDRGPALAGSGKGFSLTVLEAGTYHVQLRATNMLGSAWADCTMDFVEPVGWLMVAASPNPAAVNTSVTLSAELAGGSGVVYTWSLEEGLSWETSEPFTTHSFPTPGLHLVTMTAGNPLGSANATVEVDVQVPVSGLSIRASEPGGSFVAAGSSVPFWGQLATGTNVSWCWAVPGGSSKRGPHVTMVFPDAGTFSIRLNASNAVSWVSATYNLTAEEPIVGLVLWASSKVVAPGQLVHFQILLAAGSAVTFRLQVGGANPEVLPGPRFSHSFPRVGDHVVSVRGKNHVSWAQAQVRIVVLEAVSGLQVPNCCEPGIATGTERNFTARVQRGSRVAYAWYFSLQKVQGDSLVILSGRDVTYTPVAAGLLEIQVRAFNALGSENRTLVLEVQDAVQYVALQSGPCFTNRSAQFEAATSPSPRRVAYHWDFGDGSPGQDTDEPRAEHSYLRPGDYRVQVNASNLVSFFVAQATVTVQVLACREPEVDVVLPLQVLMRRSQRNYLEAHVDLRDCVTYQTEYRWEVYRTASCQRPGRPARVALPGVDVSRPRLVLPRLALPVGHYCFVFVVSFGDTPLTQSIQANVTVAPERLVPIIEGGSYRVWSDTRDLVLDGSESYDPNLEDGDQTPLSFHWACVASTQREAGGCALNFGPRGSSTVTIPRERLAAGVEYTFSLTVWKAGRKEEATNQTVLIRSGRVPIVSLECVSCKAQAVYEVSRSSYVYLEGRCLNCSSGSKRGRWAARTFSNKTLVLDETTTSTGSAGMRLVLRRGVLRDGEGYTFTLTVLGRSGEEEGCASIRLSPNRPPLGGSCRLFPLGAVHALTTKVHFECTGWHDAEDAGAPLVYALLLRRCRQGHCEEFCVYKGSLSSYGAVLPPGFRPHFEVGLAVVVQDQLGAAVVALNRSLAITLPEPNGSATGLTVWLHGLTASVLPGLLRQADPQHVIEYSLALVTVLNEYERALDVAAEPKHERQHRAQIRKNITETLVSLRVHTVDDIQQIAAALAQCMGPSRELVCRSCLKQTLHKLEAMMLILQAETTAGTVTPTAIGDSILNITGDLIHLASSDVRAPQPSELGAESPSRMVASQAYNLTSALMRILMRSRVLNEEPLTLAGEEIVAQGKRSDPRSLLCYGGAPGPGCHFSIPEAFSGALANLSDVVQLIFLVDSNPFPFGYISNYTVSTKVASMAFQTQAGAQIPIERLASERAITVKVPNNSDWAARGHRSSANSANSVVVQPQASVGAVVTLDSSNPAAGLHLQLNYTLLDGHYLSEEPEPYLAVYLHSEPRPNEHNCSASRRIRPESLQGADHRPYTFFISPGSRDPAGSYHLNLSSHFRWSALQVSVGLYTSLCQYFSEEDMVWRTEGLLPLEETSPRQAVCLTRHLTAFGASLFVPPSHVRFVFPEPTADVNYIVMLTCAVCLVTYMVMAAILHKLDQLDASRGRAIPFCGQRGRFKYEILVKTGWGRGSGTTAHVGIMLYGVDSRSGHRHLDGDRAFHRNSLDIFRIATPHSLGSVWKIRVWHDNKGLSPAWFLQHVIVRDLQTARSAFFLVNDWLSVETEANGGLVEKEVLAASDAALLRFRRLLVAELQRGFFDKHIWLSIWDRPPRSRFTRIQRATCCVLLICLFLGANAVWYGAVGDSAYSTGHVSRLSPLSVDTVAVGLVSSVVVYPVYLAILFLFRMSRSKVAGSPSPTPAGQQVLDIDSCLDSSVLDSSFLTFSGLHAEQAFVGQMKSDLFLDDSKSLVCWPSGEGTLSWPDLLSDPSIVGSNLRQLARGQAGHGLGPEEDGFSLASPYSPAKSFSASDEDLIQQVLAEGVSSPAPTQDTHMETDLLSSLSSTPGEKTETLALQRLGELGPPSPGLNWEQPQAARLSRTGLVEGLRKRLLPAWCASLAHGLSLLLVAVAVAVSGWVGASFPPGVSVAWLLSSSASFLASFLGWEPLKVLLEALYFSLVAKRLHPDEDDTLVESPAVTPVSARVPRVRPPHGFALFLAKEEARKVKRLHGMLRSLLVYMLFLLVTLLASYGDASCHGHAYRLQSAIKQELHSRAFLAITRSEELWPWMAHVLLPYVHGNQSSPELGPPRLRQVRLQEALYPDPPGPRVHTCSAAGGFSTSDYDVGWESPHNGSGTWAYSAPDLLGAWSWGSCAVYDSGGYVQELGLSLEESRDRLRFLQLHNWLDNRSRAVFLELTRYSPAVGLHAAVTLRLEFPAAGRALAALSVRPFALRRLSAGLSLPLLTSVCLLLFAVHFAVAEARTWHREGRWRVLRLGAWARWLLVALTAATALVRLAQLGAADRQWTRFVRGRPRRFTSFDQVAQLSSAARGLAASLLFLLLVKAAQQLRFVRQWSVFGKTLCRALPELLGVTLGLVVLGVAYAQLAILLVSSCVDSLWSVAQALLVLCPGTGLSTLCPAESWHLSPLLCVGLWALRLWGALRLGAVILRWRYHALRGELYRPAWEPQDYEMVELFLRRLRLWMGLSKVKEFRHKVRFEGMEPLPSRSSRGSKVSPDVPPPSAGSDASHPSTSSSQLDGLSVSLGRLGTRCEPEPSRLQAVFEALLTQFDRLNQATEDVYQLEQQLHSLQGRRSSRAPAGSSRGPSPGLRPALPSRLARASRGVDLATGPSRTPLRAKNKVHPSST

| effect of a mutation on the interaction | Variant |
| --- | --- |
| disrupting interaction strength | L842A;V846A;M849A;I860A;V863A;L867A |
